Reference: article PMC10515009, “A regulatory GhBPE-GhPRGL module maintains ray petal length in Gerbera hybrida”

Target: T1, GST-N-GhBPE (Gerbera hybrida)
T1 chain: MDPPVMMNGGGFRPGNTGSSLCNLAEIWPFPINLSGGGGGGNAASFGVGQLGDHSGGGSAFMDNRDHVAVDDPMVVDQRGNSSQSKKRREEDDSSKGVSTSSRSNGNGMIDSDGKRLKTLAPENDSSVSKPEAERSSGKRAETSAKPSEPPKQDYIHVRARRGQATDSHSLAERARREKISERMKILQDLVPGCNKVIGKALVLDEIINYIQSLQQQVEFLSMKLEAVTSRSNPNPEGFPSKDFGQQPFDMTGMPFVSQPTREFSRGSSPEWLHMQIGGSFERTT
Experiment: EMSA; LightShift Chemiluminescent EMSA kit; buffer, salt, pH and temperature not stated (as Han et al. 2017)
Conditions: protein: recombinant; vector pET32-GST; label: 5' biotin (Methods); blunt

B1: MUT-probe2 (both JA response elements mutated) (dsDNA)
DNA 1: AACACATAAAAAAATCTGTGGTTTTATTGGTTTGTTATTTATCAGATACATTTTAAATATTTAATCGATAATCAAATTTTTTATTAAACACCCACCCCCA
DNA 2: TGGGGGTGGGTGTTTAATAAAAAATTTGATTATCGATTAAATATTTAAAATGTATCTGATAAATAACAAACCAATAAAACCACAGATTTTTTTATGTGTT
B1: no binding.
